From patent US20110312891A1, “ENAMEL MATRIX DERIVATIVE FRACTION C” (Straumann Holding AG, priority 2008, published 2011)

B1: PTH: PTH peptides compared with EMD on primary osteoblasts (protein, UniProt P01270 32-115, looked up)
Parathyroid hormone: SVSEIQLMHNLGKHLNSMERVEWLRKKLQDVHNFVALGAPLAPRDAGSQRPRKKEDNVLVESHEKSLGEADKADVNVLTKAKSQ
modifications: Parathyroid hormone
notes: PTH peptides compared with EMD on primary osteoblasts
B2: rhAmel: recombinant human amelogenin over-expressed in Escherichia Coli (protein, UniProt Q99217 17-191, looked up)
Amelogenin, X isoform: MPLPPHPGHPGYINFSYEVLTPLKWYQSIRPPYPSYGYEPMGGWLHHQIIPVLSQQHPPTHTLQPHHHIPVVPAQQPVIPQQPMMPVPGQHSMTPIQHHQPNLPPPAQQPYQPQPVQPQPHQPMQPQPPVHPMQPLPPQPPLPPMFPMQPLPPMLPDLTLEAWPSTDKTKREEVD

Columns and labels:
MG63 cells = assay: WST-1 cell proliferation and viability assay; format: cell-based, human; settings: 1 μg/mL; after 7 days; compared to the negative control
Procedure: Minimum Essential Medium Eagle (MEM)+10% Fetal calf serum +1% Penicilin-Streptomycin (×100)+1% Non Essential Amino Acid Solution (×100)+1% L-Glutamine (200 mM) Seeding density MG63 cells in passage 4 were seeded with a density of 10,000 cells/cm2 on 96 wells culture plates. Sampling was performed after 24 hours and 7 days in vitro.
Furthermore, the proliferation reagent WST-1 test was performed to assess cell proliferation and viability. WST-1 solution was added in a final solution of 1:10 to the monolayer culture and cells were incubated at 37° C. for a further 1 hour. The absorbance of the supernatants was measured spectrophotometrically using VersaMax micro plate reader (Molecular Devices, California, USA) at 420 nm-480 nm with a reference wavelength of 600 nm. Results are reported as optical density (OD).

osteoblasts = assay: Effect of fraction C, its isoforms and synthetic amelogenin peptides on bone markers in osteoblasts; format: cell-based; settings: for LDH activity in the culture medium: compared with fraction C and the mix of peptides (3113), slightly more toxic effect
Procedure: We have tested synthetic peptides of amelogenin (exon1, 3 and 5) of various lengths.
Fraction C, having a molecular weight of 5250.4 g/mol was used at a final concentration of 5 μg/ml (0.9 μmol/L). The peptides were used in a molar concentration similar to fraction C. WBRA001 enhanced osteocalcin and CD44 expression and secretion similar to fraction C, the smaller peptides had no effect on the bone markers in osteoblasts. 5 kDa amelogenins, isolated from EMD batch 3113 was identified to contain both; C1RP or C2RP (1-43 and 1-45 TRAP), whereas the fraction C isolated from EMD batch 9121 contains not only C1RP and C2R (1-43 and 1-45 TRAP), but 2 further, unidentified minor peaks. The effect of the different isoforms on expression of bone markers was tested on osteoblasts.

primary osteoblasts = assay: Affymetrix gene chip analysis of primary osteoblasts, EMD versus PTH; format: cell-based, human; settings: 24 h after stimulation; cells of two donors
Procedure: Commercially available primary human osteoblasts from both femur and tibia of different donors (NHOst cell system; Cambrex, Walkersville, Md., USA) were grown in osteoblast growth media (OGM, Cambrex). Cultured osteoblasts were exposed to hydrocortisone hemisuccinate (200 nM) and h-glycerophosphate (10 mM) (Cambrex) in ambient medium to facilitate mineralization. The phenotype of cells was characterized based on the expression levels of alkaline phosphatase (ALP), collagen type 1, osteocalcin, and CD44 (late differentiation marker), and formation of mineralization nodules.
Primary osteoblasts were cultured in T75 culture flasks and cultured after treatment for 24 h, 72 h or 7d respectively and lysed in 7 ml Trizol solution (Gibco, USA). Trizol lysates were kept at −70° C. until RNA isolation according to the manufacturer's protocols and further processing (Dep. of Medical Biochemistry, Oslo University, Norway). Double stranded cDNA and biotin labeled cRNA probes were made from 5 μg total RNA using the Superscript Choice system (Invitrogen) and the Enzo Bioarray respectively. Procedures were according to recommendations from Affymetrix. […]
To compare the effects of PTH peptides and EMD on primary osteoblasts, cells of two donors were treated synchronously and expression patterns were analysed by affymetrix gene chip analysis. […]

[1] = system: MG63 human osteoblast-like cells; assay: Osteoblast differentiation in confluent MG63 cultures treated for 24 hours (DNA, ALP, osteocalcin, OPG, VEGF, FGF-2); format: cell-based
Procedure: Methods: Confluent cultures of MG63 human osteoblast-like cells and normal human osteoblasts were treated with or without EMD, recombinant human amelogenin (rhAmel), Fraction A (0.01-100 μg/ml) or Fraction C (0.1-250 μg/ml) for 24 hours. Effects on DNA content and alkaline phosphatase specific activity (ALP), and osteocalcin (OCN), osteoprotegerin (OPG), vascular endothelial growth factor A (VEGF-A) and fibroblast growth factor-2 (FGF-2) levels in the conditioned media were determined.
MG63 osteoblast-like cells, originally isolated from a human osteosarcoma, were obtained from the American Type Culture Collection (Rockville, Md.). […]
MG63 Cells were cultured in Dulbecco's modified Eagle medium (DMEM) containing 10% fetal bovine serum (FBS) and 1% penicillin and streptomycin at 37° C. in an atmosphere of 5% CO2 and 100% humidity. […] The levels of osteocalcin in the conditioned media were measured using a commercially available radioimmunoassay kit (Human Osteocalcin RIA Kit, Biomedical Technologies, Stoughton, Mass.) and normalized to DNA content. […] Osteoprotegerin was measured using enzyme-linked immunosorbent assay (ELISA) kit (DY805 Osteoprotegerin DuoSet, R&D Systems, Minneapolis, Minn.). VEGF was assesseds using an ELISA kit (RnD Systems). […] The absorbance of the samples was read using a microplate reader and the results analyzed using a standard curve. […]

Molecule	cell viability and proliferation (WST-1) (MG63 cells)	LDH activity in the culture medium (osteoblasts)	also measured
C1RP: Peak 1 of Frac C; SEQ.ID.NO: 1, 43AA form MPLPPHPGHPGYINFSYEVLTPLKWYQNMIRHP-YTSYGYEPMG (MPLPPHPGHPGYINFXYEVLTPLKWYQNMIRHPYTSYGYEPMG; MOD_RES (16)..(16) Ser or Glu, wherein Ser is optionally phosphorylated; listed as Sus scrofa) [Fraction C1RP]	clear effect	higher LDH activity	–
C2RP: Peak 2 of Frac C; SEQ.ID.NO: 2, 45AA form MPLPPHPGHPGYINFSYEVLTPLKWYQNMIRHP-YTSYGYEPMGGW (MPLPPHPGHPGYINFXYEVLTPLKWYQNMIRHPYTSYGYEPMGGW; MOD_RES (16)..(16) Ser or Glu, wherein Ser is optionally phosphorylated; listed as Sus scrofa) [Fraction C2RP]	clear effect	higher LDH activity	–
MPLPP HPGHPGYINFSYEVLTPLKWYQSIRPP-OH [WBRA001]	–	–	osteocalcin and CD44 expression and secretion (osteoblasts; molar concentration similar to fraction C, 5 μg/ml (0.9 μmol/L)): enhanced
B1	–	–	genes more than 2-fold changed in the same direction with both EMD and PTH from non-treated controls (primary osteoblasts): 254 genes
B2	–	–	concentration of maximal increases in osteocalcin ([1]; FIG. 4): 1 µg/mL; osteocalcin production (dose response) ([1]; FIG. 4, N=6 cultures per variable, p<0.05 v. control): biphasic increase
